Biological target: T1, hen egg lysozyme (hen, UniProt P00698 19-147)
T1 construct: Antigen immobilised on the microtitre plate in all ELISAs; also called HEL
Assay: ELISA on immobilised HEL, tAK activity read-out; fusion extracted with glutathione and heat treated, compared with the BSA control
Experimental: FIG. 1 illustrates functional recovery of correctly folded single-domain antibody (VNAR) in the presence of the Sac tAK domain and glutathione. The fusion proteins were assessed for their ability to bind to hen egg lysozyme immobilized onto a microtitre plate in an ELISA format, using the tAK activity as the assay read-out. In each case background binding was measured using BSA as a non-relevant antigen control. In the case of Tma tAK fusions, no significant increase in binding was observed above the background binding to BSA with either glutathione extraction, heat treatment or a combination of the two.

T1 sequence (P00698 19-147): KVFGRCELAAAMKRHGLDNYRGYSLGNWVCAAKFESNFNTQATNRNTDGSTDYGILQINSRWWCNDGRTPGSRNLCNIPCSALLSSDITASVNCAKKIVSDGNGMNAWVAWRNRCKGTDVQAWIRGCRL

- fold increase in binding: ~10 fold
B1: SacAK-F3-VNAR fusion protein (Sulfolobus acidocaldarius adenylate kinase, [GGGGS]3 flexible linker F3, hen egg lysozyme specific shark VNAR) (VNAR)
chain: MLATALKLGYAKDRDEMRKLSVEKQKKLQIDAAKGIAEEARAGGEGYLFIDTHAVIRTPSGYLPGLPSYVITEINPSVIFLLEADPKIILSRQKRDTTRNRNDYSDESVILETINFARYAATASAVLAGSTVKVIVNVEGDPSIAANEIIRSMKQSTGGGGSGGGGSGGGGSGSARVDQTPRSVTKETGESLTINCVLRDASYALGSTCWYRKKSGSTNEESISKGGRYVETVNSGSKSFSLRINDLTVEDGGTYRCGLGVAGGYCDYALCSSRYAECGDGTAVTVN
notes: also called Sac tAK fusions; the fusion

Reference: patent US20140315215A1 (SECRETARY OF STATE FOR HEALTH, published 2014)
